Among the data in US20230151095A1 (published 2023) are Kd values, retold here.

For experiment [1], the target named is T1, XENP23311 (His-tagged NKG2D-Fc) (human, UniProt P26718 78-216).
T1 chain: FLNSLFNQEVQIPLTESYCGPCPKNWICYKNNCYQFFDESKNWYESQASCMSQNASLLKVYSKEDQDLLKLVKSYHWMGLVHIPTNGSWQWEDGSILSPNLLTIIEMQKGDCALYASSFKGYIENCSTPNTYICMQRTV
Kind of experiment: Octet; bivalent format. On the technique in general: Biolayer interferometry detects binding as a change in optical thickness at a sensor tip.

The target in experiment [2] is T1, XENP23311 (His-tagged NKG2D-Fc). The experiment in a line: Biacore; 1:1 Langmuir.
Experiment [3] shares this target. Kind of experiment: Biacore; steady state.
The target of experiment [4] is CD16 (UniProt P08637 17-208).
Chain of CD16 (P08637 17-208): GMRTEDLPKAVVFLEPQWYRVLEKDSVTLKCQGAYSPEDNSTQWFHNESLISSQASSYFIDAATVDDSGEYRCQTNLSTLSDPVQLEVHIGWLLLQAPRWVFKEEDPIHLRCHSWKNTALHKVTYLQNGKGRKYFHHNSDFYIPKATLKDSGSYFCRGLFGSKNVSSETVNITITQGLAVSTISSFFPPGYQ

B1: XENP38093 (1D2B4, Bivalent) (antibody, V domains shown)
VH: EVQLLESGGGLVQPGGSLRLSCAASGFTFSSFGMSWVRQAPGKGLEWVSTISGSGSTTYYADSVKGRFTISRDNSKNTLYLQMNSLRAEDTAVYYCAKGVFSEWHYYFDYWGQGTLVTVSS
VL: not shown
As to B1, in experiment [1], the Kd is 0.52 nM.

B2: XENP38098 (LB_1002, Bivalent) (antibody, V domains shown)
VH: EVQLVESGGGLVKPGGSLRLSCAASGFTFSSYSMNWVRQAPGKGLEWVSSISSSSSYIYYADSVKGRFTISRDNAKNSLYLQMNSLRAEDTAVYYCARGAPMGAAAGWFDPWGQGTLVTVSS
VL: DIQMTQSPSSVSASVGDRVTITCRASQGISSWLAWYQQKPGKAPKLLIYAASSLQSGVPSRFSGSGSGTDFTLTISSLQPEDFATYYCQQGVSFPRTFGGGTKVEIKR
With B2, the Kd in experiment [1] stood at 0.49 nM.

B3: XENP38097 (LB_1001, Bivalent) (antibody, V domains shown)
VH: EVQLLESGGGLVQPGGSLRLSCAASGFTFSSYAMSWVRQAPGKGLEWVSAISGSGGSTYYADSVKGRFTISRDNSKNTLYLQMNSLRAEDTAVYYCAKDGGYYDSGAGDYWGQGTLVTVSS
VL: DIQMTQSPSSVSASVGDRVTITCRASQGIDSWLAWYQQKPGKAPKLLIYAASSLQSGVPSRFSGSGSGTDFTLTISSLQPEDFATYYCQQGVSYPRTFGGGTKVEIKR
For the molecule B3, the Kd in experiment [1] was found to be 0.42 nM.

B4: XENP42653 (bispecific antibody)
heavy: EVQLLESGGGLVQPGGSLRLSCAVSGFSLSSYGVIWVRQAPGKGLEYVSWVSSGGSTNYASSVKGRFTISRDTSKNTVYLQMNSLRAEDTAVYFCARGATNSGTDIWGPGTLVTVSSASTKGPSVFPLAPSSKSTSGGTAALGCLVKDYFPEPVTVSWNSGALTSGVHTFPAVLQSSGLYSLSSVVTVPSSSLGTQTYICNVNHKPSDTKVDKKVEPKSCDKTHTCPPCPAPELLGGPSVFLFPPKPKDTLMISRTPEVTCVVVDVSHEDPEVKFNWYVDGVEVHNAKTKPREEEYNSTYRVVSVLTVLHQDWLNGKEYKCKVSNKALPAPIEKTISKAKGQPREPQVYTLPPSREEMTKNQVSLTCDVSGFYPSDIAVEWESDGQPENNYKTTPPVLDSDGSFFLYSKLTVDKSRWEQGDVFSCSVMHEALHNHYTQKSLSLSPGK
chain: not shown
light: DIVMTQSPSSLSASVGDRVTITCRASQSINSWLSWYQQKPGKPPKLLIYGASNLASGVPSRFKGSGSGTDFTLTISSLQPEDFATYYCQNNYGIIAAGATFGGGTKVEIKRTVAAPSVFIFPPSDEQLKSGTASVVCLLNNFYPREAKVQWKVDNALQSGNSQESVTEQDSKDSTYSLSSTLTLSKADYEKHKVYACEVTHQGLSSPVTKSFNRGEC
Regarding B4, the figures for the Kd in experiment [2] and in experiment [3] were 14800 nM and 5410 nM, respectively.

B5: XENP42652 (bispecific antibody)
heavy: EVQLLESGGGLVQPGGSLRLSCAVSGFSLSSYGVIWVRQAPGKGLEYVSWVSSGGSTNYASSVKGRFTISRDTSKNTVYLQMNSLRAEDTAVYFCARGATNSGTDIWGPGTLVTVSSASTKGPSVFPLAPSSKSTSGGTAALGCLVKDYFPEPVTVSWNSGALTSGVHTFPAVLQSSGLYSLSSVVTVPSSSLGTQTYICNVNHKPSDTKVDKKVEPKSCDKTHTCPPCPAPELLGGPSVFLFPPKPKDTLMISRTPEVTCVVVDVSHEDPEVKFNWYVDGVEVHNAKTKPREEEYNSTYRVVSVLTVLHQDWLNGKEYKCKVSNKALPAPIEKTISKAKGQPREPQVYTLPPSREEMTKNQVSLTCDVSGFYPSDIAVEWESDGQPENNYKTTPPVLDSDGSFFLYSKLTVDKSRWEQGDVFSCSVMHEALHNHYTQKSLSLSPGK
chain: not shown
light: DIVMTQSPSSLSASVGDRVTITCRASQSINSWLSWYQQKPGKPPKLLIYGASNLASGVPSRFKGSGSGTDFTLTISSLQPEDFATYYCQNNYGIIAAGATFGGGTKVEIKRTVAAPSVFIFPPSDEQLKSGTASVVCLLNNFYPREAKVQWKVDNALQSGNSQESVTEQDSKDSTYSLSSTLTLSKADYEKHKVYACEVTHQGLSSPVTKSFNRGEC
With B5, the Kd in experiment [2] was found to be 253 nM; in experiment [3] it was 162 nM.

B6: XENP41023 (antibody)
chain 1: EVQLLESGGGLVQPGGSLRLSCAVSGFSLSSYGVIWVRQAPGKGLEYVSWVSSGGSTNYASSVKGRFTISRDTSKNTVYLQMNSLRAEDTAVYFCARGATNSGTDIWGPGTLVTVSSASTKGPSVFPLAPSSKSTSGGTAALGCLVKDYFPEPVTVSWNSGALTSGVHTFPAVLQSSGLYSLSSVVTVPSSSLGTQTYICNVNHKPSDTKVDKKVEPKSCDKTHTCPPCPAPELLGGPDVFLFPPKPKDTLMISRTPEVTCVVVDVSHEDPEVKFNWYVDGVEVHNAKTKPREEEYNSTYRVVSVLTVLHQDWLNGKEYKCKVSNKALPAPIEKTISKAKGQPREPQVYTLPPSREEMTKNQVSLTCDVSGFYPSDIAVEWESDGQPENNYKTTPPVLDSDGSFFLYSKLTVDKSRWEQGDVFSCSVMHEALHNHYTQKSLSLSPGK
chain 2: EVQLLESGGGLVQPGGSLRLSCAVSGFSLSSYGVIWVRQAPGKGLEYVSWVSSGGSTNYASSVKGRFTISRDTSKNTVYLQMNSLRAEDTAVYFCARGATNSGTDIWGPGTLVTVSSGKPGSGKPGSGKPGSGKPGSDIVMTQSPSSLSASVGDRVTITCRASQSINSWLSWYQQKPGKPPKLLIYGASNLASGVPSRFKGSGSGTDFTLTISSLQPEDFATYYCQNNYGIIAAGATFGGGTKVEIKEPKSSDKTHTCPPCPAPELLGGPDVFLFPPKPKDTLMISRTPEVTCVVVDVSHEDPEVKFNWYVDGVEVHNAKTKPREEQYNSTYRVVSVLTVLHQDWLNGKEYKCKVSNKALPAPIEKTISKAKGQPREPQVYTLPPSREQMTKNQVKLTCLVKGFYPSDIAVEWESNGQPENNYKTTPPVLDSDGSFFLYSKLTVDKSRWQQGNVFSCSVMHEALHNHYTQKSLSLSPGK
chain 3: DIVMTQSPSSLSASVGDRVTITCRASQSINSWLSWYQQKPGKPPKLLIYGASNLASGVPSRFKGSGSGTDFTLTISSLQPEDFATYYCQNNYGIIAAGATFGGGTKVEIKRTVAAPSVFIFPPSDEQLKSGTASVVCLLNNFYPREAKVQWKVDNALQSGNSQESVTEQDSKDSTYSLSSTLTLSKADYEKHKVYACEVTHQGLSSPVTKSFNRGEC
Molecule B6 returned a Kd in experiment [4] of 102 nM.

B7: XENP40375_H1L1 (antibody)
chain 1: EVQLLESGGGLVQPGGSLRLSCAVSGFSLSSYGVIWVRQAPGKGLEYVSWVSSGGSTNYASSVKGRFTISRDTSKNTVYLQMNSLRAEDTAVYFCARGATNSGTDIWGPGTLVTVSSASTKGPSVFPLAPSSKSTSGGTAALGCLVKDYFPEPVTVSWNSGALTSGVHTFPAVLQSSGLYSLSSVVTVPSSSLGTQTYICNVNHKPSDTKVDKKVEPKSCDKTHTCPPCPAPELLGGPSVFLFPPKPKDTLMISRTPEVTCVVVDVSHEDPEVKFNWYVDGVEVHNAKTKPREEEYNSTYRVVSVLTVLHQDWLNGKEYKCKVSNKALPAPIEKTISKAKGQPREPQVYTLPPSREEMTKNQVSLTCDVSGFYPSDIAVEWESDGQPENNYKTTPPVLDSDGSFFLYSKLTVDKSRWEQGDVFSCSVMHEALHNHYTQKSLSLSPGK
chain 2: not shown
chain 3: DIVMTQSPSSLSASVGDRVTITCRASQSINSWLSWYQQKPGKPPKLLIYGASNLASGVPSRFKGSGSGTDFTLTISSLQPEDFATYYCQNNYGIIAAGATFGGGTKVEIKRTVAAPSVFIFPPSDEQLKSGTASVVCLLNNFYPREAKVQWKVDNALQSGNSQESVTEQDSKDSTYSLSSTLTLSKADYEKHKVYACEVTHQGLSSPVTKSFNRGEC
B7: the values for the Kd in experiment [2] and in experiment [3] were 15.5 nM and 19 nM, respectively.

B8: XENP42655 (bispecific antibody)
heavy: EVQLLESGGGLVQPGGSLRLSCAVSGFSLSSYGVIWVRQAPGKGLEYVSWVSSGGSTNYASSVKGRFTISRDTSKNTVYLQMNSLRAEDTAVYFCARGATNSGTDIWGPGTLVTVSSASTKGPSVFPLAPSSKSTSGGTAALGCLVKDYFPEPVTVSWNSGALTSGVHTFPAVLQSSGLYSLSSVVTVPSSSLGTQTYICNVNHKPSDTKVDKKVEPKSCDKTHTCPPCPAPELLGGPSVFLFPPKPKDTLMISRTPEVTCVVVDVSHEDPEVKFNWYVDGVEVHNAKTKPREEEYNSTYRVVSVLTVLHQDWLNGKEYKCKVSNKALPAPIEKTISKAKGQPREPQVYTLPPSREEMTKNQVSLTCDVSGFYPSDIAVEWESDGQPENNYKTTPPVLDSDGSFFLYSKLTVDKSRWEQGDVFSCSVMHEALHNHYTQKSLSLSPGK
chain: not shown
light: DIVMTQSPSSLSASVGDRVTITCRASQSINSWLSWYQQKPGKPPKLLIYGASNLASGVPSRFKGSGSGTDFTLTISSLQPEDFATYYCQNNYGIIAAGATFGGGTKVEIKRTVAAPSVFIFPPSDEQLKSGTASVVCLLNNFYPREAKVQWKVDNALQSGNSQESVTEQDSKDSTYSLSSTLTLSKADYEKHKVYACEVTHQGLSSPVTKSFNRGEC
In the case of B8, the Kd came out at 4190 nM in experiment [2] and 1490 nM in experiment [3].

B9: XENP42654 (bispecific antibody)
heavy: EVQLLESGGGLVQPGGSLRLSCAVSGFSLSSYGVIWVRQAPGKGLEYVSWVSSGGSTNYASSVKGRFTISRDTSKNTVYLQMNSLRAEDTAVYFCARGATNSGTDIWGPGTLVTVSSASTKGPSVFPLAPSSKSTSGGTAALGCLVKDYFPEPVTVSWNSGALTSGVHTFPAVLQSSGLYSLSSVVTVPSSSLGTQTYICNVNHKPSDTKVDKKVEPKSCDKTHTCPPCPAPELLGGPSVFLFPPKPKDTLMISRTPEVTCVVVDVSHEDPEVKFNWYVDGVEVHNAKTKPREEEYNSTYRVVSVLTVLHQDWLNGKEYKCKVSNKALPAPIEKTISKAKGQPREPQVYTLPPSREEMTKNQVSLTCDVSGFYPSDIAVEWESDGQPENNYKTTPPVLDSDGSFFLYSKLTVDKSRWEQGDVFSCSVMHEALHNHYTQKSLSLSPGK
chain: not shown
light: DIVMTQSPSSLSASVGDRVTITCRASQSINSWLSWYQQKPGKPPKLLIYGASNLASGVPSRFKGSGSGTDFTLTISSLQPEDFATYYCQNNYGIIAAGATFGGGTKVEIKRTVAAPSVFIFPPSDEQLKSGTASVVCLLNNFYPREAKVQWKVDNALQSGNSQESVTEQDSKDSTYSLSSTLTLSKADYEKHKVYACEVTHQGLSSPVTKSFNRGEC
In the case of B9, the Kd in experiment [2] was 360 nM; in experiment [3], 190 nM.
